This experiment addresses organic anion transporting polypeptide (OATP) 1B3 (UniProt Q9NPD5).
UniProt Q9NPD5, sequence (Q9NPD5 whole entry): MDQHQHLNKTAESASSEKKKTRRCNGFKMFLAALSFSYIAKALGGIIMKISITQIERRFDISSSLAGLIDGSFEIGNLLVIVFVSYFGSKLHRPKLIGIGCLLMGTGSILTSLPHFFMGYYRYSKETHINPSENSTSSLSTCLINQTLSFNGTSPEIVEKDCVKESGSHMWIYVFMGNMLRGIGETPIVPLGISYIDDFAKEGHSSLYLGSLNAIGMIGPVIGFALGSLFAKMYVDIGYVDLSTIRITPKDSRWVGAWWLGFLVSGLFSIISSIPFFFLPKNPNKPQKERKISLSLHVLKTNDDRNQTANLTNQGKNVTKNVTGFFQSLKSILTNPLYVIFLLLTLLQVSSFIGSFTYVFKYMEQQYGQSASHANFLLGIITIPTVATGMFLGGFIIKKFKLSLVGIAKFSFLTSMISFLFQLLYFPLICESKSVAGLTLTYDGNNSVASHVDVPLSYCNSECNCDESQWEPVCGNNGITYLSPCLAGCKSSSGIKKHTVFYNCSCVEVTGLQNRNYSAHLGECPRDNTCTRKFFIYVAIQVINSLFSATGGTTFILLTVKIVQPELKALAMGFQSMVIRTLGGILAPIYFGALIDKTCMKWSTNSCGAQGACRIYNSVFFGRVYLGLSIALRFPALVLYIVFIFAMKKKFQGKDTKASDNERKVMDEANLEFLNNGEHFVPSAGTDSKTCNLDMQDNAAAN

On to octapeptide cholecystokinin 8, for which the Km (called the affinity constant) of CCK-8 transport, [^3H]CCK-8 accumulation 0.1-40 uM, 3 min, in HEK293-OATP1B3 cells pretreated with bortezomib (50 nM, 7 h), Michaelis-Menten fit was determined as 4.9 µM and the Km (called the affinity constant) of CCK-8 transport, [^3H]CCK-8 accumulation 0.1-40 uM, 3 min, in HEK293-OATP1B3 cells pretreated with vehicle control, Michaelis-Menten fit is 5.8 µM.

(Values after article PMC5673231.)
